T1: dog iRhom2 (Canis lupus familiaris, UniProt Q00M95)
T1 construct: pMSCV-dog-iR2-FL-WT-T7 encoding dog iRhom2 full length wild type; expressed in transfected cells; host or cells: immortalized iRhom1/2-/- DKO mouse embryonic fibroblasts, pMSCV retroviral infection
T1 sequence (Q00M95 1-827): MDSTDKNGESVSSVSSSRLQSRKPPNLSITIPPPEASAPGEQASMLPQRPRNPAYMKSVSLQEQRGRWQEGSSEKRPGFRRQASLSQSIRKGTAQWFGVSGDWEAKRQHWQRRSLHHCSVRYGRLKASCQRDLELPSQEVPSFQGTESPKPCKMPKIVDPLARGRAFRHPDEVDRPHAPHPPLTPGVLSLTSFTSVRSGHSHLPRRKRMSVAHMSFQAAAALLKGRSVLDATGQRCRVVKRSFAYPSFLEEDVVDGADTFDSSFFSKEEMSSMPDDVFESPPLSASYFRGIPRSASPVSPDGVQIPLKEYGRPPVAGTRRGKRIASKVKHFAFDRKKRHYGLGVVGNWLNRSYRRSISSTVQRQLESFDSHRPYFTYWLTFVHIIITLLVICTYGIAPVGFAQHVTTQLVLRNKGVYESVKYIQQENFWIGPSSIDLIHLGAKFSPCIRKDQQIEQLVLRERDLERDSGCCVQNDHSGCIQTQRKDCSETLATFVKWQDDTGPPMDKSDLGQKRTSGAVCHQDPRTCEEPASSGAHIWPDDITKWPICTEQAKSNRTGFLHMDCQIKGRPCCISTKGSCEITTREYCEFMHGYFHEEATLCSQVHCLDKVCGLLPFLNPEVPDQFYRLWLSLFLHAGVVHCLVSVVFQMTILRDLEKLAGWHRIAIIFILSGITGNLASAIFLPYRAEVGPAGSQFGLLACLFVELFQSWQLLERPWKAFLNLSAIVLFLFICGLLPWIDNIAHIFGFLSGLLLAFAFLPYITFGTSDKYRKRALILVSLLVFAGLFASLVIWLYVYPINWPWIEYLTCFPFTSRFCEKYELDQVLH

B1: 16-B-03: humanized antibody binding human iRhom2; HCVD SEQ ID NO 1, LCVD SEQ ID NO 5 (antibody, V domains shown)
VH: QVTLRESGPALVKPTQTLTLTCTFSGFSLSTFALGVGWIRQPPGKALEWLAHIWWDDDKYYNPALKSRLTISKDTSKNQVVLTITNMDPVDTATYYCARITTYYYGMDYWGQGTLVTVSS
VL: EIVMTQSPDFQSVTPKEKVTITCRASQSIGNHLHWYQQKPDASPKLLIKYASQSISGVPSRFSGSGSGTDFTLTINSLEAEDAATYFCQQSYQWPLTFGQGTKLEIK
modifications: antibody sequences
B2: 16-B-05: humanized antibody binding human iRhom2; HCVD SEQ ID NO 9, LCVD SEQ ID NO 13 (antibody, V domains shown)
VH: B1 VH with D57E
VL: B1 VL with Q93N
modifications: antibody sequences
B3: 16-B-07: humanized antibody binding human iRhom2; HCVD SEQ ID NO 17, LCVD SEQ ID NO 21 (antibody, V domains shown)
VH: B1 VH with D57E
VL: B1 VL
modifications: antibody sequences
B4: 23-B-04: humanized antibody binding human iRhom2; HCVD SEQ ID NO 25, LCVD SEQ ID NO 29 (antibody, V domains shown)
VH: QVTLRESGPALVKPTQTLTLTCTFSGFSLSTFGMGVGWIRQPPGKALEWLAHIWWDDEKYYNSALKSRLTISKDTSKNQVVLTITNMDPVDTATYYCARISNYGSNYWYFNVWGQGTLVTVSS
VL: AIQLTQSPSSLSASVGDRVTITCRASSSVSYMYWYQQKPGKAPKVLIYDTSNLASGVPSRFSGSGSGTDYTLTISSLQPEDFATYYCQQWNAYPLTFGQGTKLEIK
modifications: antibody sequences
B5: 42-B-02: humanized antibody binding human iRhom2; HCVD SEQ ID NO 33, LCVD SEQ ID NO 37 (antibody, V domains shown)
VH: B4 VH with M34R, S101Q, N111D
VL: B4 VL with S28R, V29I, Y33F, A92S
modifications: antibody sequences
B6: 42-B-04: humanized antibody binding human iRhom2; HCVD SEQ ID NO 41, LCVD SEQ ID NO 45 (antibody, V domains shown)
VH: B4 VH with M34R, S101Q, N111D
VL: B4 VL with S28R, V29I, Y33F
modifications: antibody sequences

Changes are numbered by the printed parent chain.

The first assay deals with cynomolgus monkey iRhom1. Description: FACS binding on MEF-DKO-Cyno-iR1-FL-WT-T7 cells. The following applies: antibody at 3 μg/ml. From the text: (§1) Next, iRhom1/2−/− DKO MEFs stably expressing a tagged form of rhesus monkey, cynomolgus monkey, dog or rabbit iRhom2 were generated in order to determine cross-reactivity of the antibodies of the invention with the respective orthologue of iRhom2. iRhom1/2−/− DKO MEFs stably expressing a tagged form of rhesus monkey, cynomolgus monkey, dog or rabbit iRhom1 were generated to confirm specificity for iRhom2 versus iRhom1 of these species.
(§2) In brief, on day 1, Phoenix-ECO cells (American Type Culture Collection, USA) were seeded on 6-well tissue culture plates (Greiner, Germany) in standard growth medium at 8×10^5 cells per well and kept overnight at 37° C., 5% CO2. On day 2, the medium was replaced by fresh medium supplemented with chloroquine (Sigma-Aldrich, USA) at a final concentration of 25 μM. Applying the calcium phosphate method, cells were transfected with 2 μg/ml of pMSCV (Clontech, USA) empty vector, pMSCV-rhesus-iR2-FL-WT-T7 encoding rhesus monkey iRhom2 full length wild type C-terminally tagged with 3 consecutive copies of the T7 epitope, pMSCV-cyno-iR2-FL-WT-T7 encoding cynomolgus monkey iRhom2 full length wild type C-terminally tagged with 3 consecutive copies of the T7 epitope, pMSCV-dog-iR2-FL-WT-T7 encoding dog iRhom2 full length wild type C-terminally tagged with 3 consecutive copies of the T7 epitope or pMSCV-rabbit-iR2-FL-WT-T7 encoding rabbit iRhom2 full length wild type C-terminally tagged with 3 consecutive copies of the T7 epitope, respectively, and were kept at 37° C., 5% CO2. After 7 hours, the transfections were stopped by replacing cell supernatants with standard growth medium lacking chloroquine, and cells were incubated at 37° C., 5% CO2 to allow virus production overnight. In parallel, immortalized iRhom1/2−/− DKO MEFs as target cells for retroviral infection were seeded on 6-well tissue culture plates (Greiner, Germany) in standard growth medium at 1×10^5 cells per well and were also kept overnight at 37° C., 5% CO2. On day 3, the supernatants of Phoenix-ECO cells releasing pMSCV, pMSCV-rhesus-iR2-FL-WT-T7, pMSCV-cyno-iR2-FL-WT-T7, pMSCV-dog-iR2-FL-WT-T7 or pMSCV-rabbit-iR2-FL-WT-T7 ecotrophic virus, respectively were collected, filtered with 0.45 μm CA filters, and supplemented with 4 μg/ml of polybrene (Sigma-Aldrich, USA). Upon removal of medium from the immortalized iRhom1/2−/− DKO MEFs, the virus containing supernatants were added to the target cells for 4 hours at 37° C., 5% CO2 for first infection. Simultaneously, Phoenix-ECO cells were re-incubated with fresh medium, which, after another 4 hours, was filtered and used for the second infection of the respective target cell populations, again in the presence of 4 μg/ml of polybrene. Likewise, a third, but overnight infection cycle was performed. On day 4, virus containing cell supernatants were replaced by fresh standard growth medium. From day 5 onwards, cells were grown in the presence of 2 mg/ml of geneticin (G418, Thermo Fisher Scientific, USA) for the selection of immortalized MEF-DKO-EV control cells stably infected with pMSCV empty vector, pMSCV-rhesus-iR2-FL-WT-T7 cells stably expressing rhesus monkey iRhom2 full length wild type C-terminally tagged with 3 consecutive copies of the T7 epitope, pMSCV-cyno-iR2-FL-WT-T7 cells stably expressing cynomolgus monkey iRhom2 full length wild type C-terminally tagged with 3 consecutive copies of the T7 epitope, pMSCV-dog-iR2-FL-WT-T7 cells stably expressing dog iRhom2 full length wild type C-terminally tagged with 3 consecutive copies of the T7 epitope or pMSCV-rabbit-iR2-FL-WT-T7 cells stably expressing rabbit iRhom2 full length wild type C-terminally tagged with 3 consecutive copies of the T7 epitope, respectively. Upon propagation, cells were stocked for future usage. In parallel, iRhom1/2−/− DKO MEFs stably expressing a tagged form of rhesus monkey, cynomolgus monkey, dog or rabbit iRhom1 were generated in an analogous manner. […]
Take B1: the “binding to cynomolgus monkey iRhom1 on MEF-DKO-Cyno-iR1-FL-WT-T7 cells” value (shortened to “binding to cynomolgus monkey iRhom1”) was “no significant binding”.

As to B2, the “binding to cynomolgus monkey iRhom1” value is “do not recognize cynomolgus monkey iRhom1”.

For the molecule B3, the “binding to cynomolgus monkey iRhom1” value is reported as “do not recognize cynomolgus monkey iRhom1”.

Turning to B4, the “binding to cynomolgus monkey iRhom1” value is “do not recognize cynomolgus monkey iRhom1”.

B5: the “binding to cynomolgus monkey iRhom1” value is “do not recognize cynomolgus monkey iRhom1”.

On to B6, for which the “binding to cynomolgus monkey iRhom1” value was “do not recognize cynomolgus monkey iRhom1”.

For another assay, the target named is T1, dog iRhom2. Description: FACS cross-reactivity on MEF-DKO-Dog-iR2-FL-WT-T7 cells. In kind it is binding. The following applies: antibody at 3 μg/ml.
Excerpt: as §1, §2
As for B1, the “binding to dog iRhom2 on MEF-DKO-Dog-iR2-FL-WT-T7 cells” value (shortened to “binding to dog iRhom2”) is “Strong binding”.

Regarding B2, the “binding to dog iRhom2” value was “recognize dog iRhom2”.

Consider B3, for which the “binding to dog iRhom2” value is on record as “recognize dog iRhom2”.

As to B4, the “binding to dog iRhom2” value is “recognize dog iRhom2”.

Consider B5, for which the “binding to dog iRhom2” value is “recognize dog iRhom2”.

For B6, the “binding to dog iRhom2” value is on record as “recognize dog iRhom2”.

(Values after US12404345B2, “Humanized antibodies against iRHOM2” (SCIRHOM GMBH, priority 2021, dated 2025).)
